IntAct's records for PubMed 24788516

B1: KAT8 regulatory NSL complex subunit 2 (Homo sapiens), Q9H9L4 (parent)
chain: MNRIRIHVLPTNRGRITPVPRSQEPLSCAFTHRPCSHPRLEGQEFCIKHILEDKNAPFKQCSYISTKNGKRCPNAAPKPEKKDGVSFCAEHVRRNALALHAQMKKTNPGPVGETLLCQLSSYAKTELGSQTPESSRSEASRILDEDSWSDGEQEPITVDQTWRGDPDSEADSIDSDQEDPLKHAGVYTAEEVALIMREKLIRLQSLYIDQFKRLQHLLKEKKRRYLHNRKVEHEALGSSLLTGPEGLLAKERENLKRLKCLRRYRQRYGVEALLHRQLKERRMLATDGAAQQAHTTRSSQRCLAFVDDVRCSNQSLPMTRHCLTHICQDTNQVLFKCCQGSEEVPCNKPVPVSLSEDPCCPLHFQLPPQMYKPEQVLSVPDDLEAGPMDLYLSAAELQPTESLPLEFSDDLDVVGDGMQCPPSPLLFDPSLTLEDHLVKEIAEDPVDILGQMQMAGDGCRSQGSRNSEKASAPLSQSGLATANGKPEPTSIS
B2: KAT8 regulatory NSL complex subunit 1 (Homo sapiens), Q7Z3B3 (parent)
chain: MAAMAPALTDAAAEAHHIRFKLAPPSSTLSPGSAENNGNANILIAANGTKRKAIAAEDPSLDFRNNPTKEDLGKLQPLVASYLCSDVTSVPSKESLKLQGVFSKQTVLKSHPLLSQSYELRAELLGRQPVLEFSLENLRTMNTSGQTALPQAPVNGLAKKLTKSSTHSDHDNSTSLNGGKRALTSSALHGGEMGGSESGDLKGGMTNCTLPHRSLDVEHTTLYSNNSTANKSSVNSMEQPALQGSSRLSPGTDSSSNLGGVKLEGKKSPLSSILFSALDSDTRITALLRRQADIESRARRLQKRLQVVQAKQVERHIQHQLGGFLEKTLSKLPNLESLRPRSQLMLTRKAEAALRKAASETTTSEGLSNFLKSNSISEELERFTASGIANLRCSEQAFDSDVTDSSSGGESDIEEEELTRADPEQRHVPLRRRSEWKWAADRAAIVSRWNWLQAHVSDLEYRIRQQTDIYKQIRANKGLIVLGEVPPPEHTTDLFLPLSSEVKTDHGTDKLIESVSQPLENHGAPIIGHISESLSTKSCGALRPVNGVINTLQPVLADHIPGDSSDAEEQLHKKQRLNLVSSSSDGTCVAARTRPVLSCKKRRLVRPNSIVPLSKKVHRNSTIRPGCDVNPSCALCGSGSINTMPPEIHYEAPLLERLSQLDSCVHPVLAFPDDVPTSLHFQSMLKSQWQNKPFDKIKPPKKLSLKHRAPMPGSLPDSARKDRHKLVSSFLTTAKLSHHQTRPDRTHRQHLDDVGAVPMVERVTAPKAERLLNPPPPVHDPNHSKMRLRDHSSERSEVLKHHTDMSSSSYLAATHHPPHSPLVRQLSTSSDSPAPASSSSQVTASTSQQPVRRRRGESSFDINNIVIPMSVAATTRVEKLQYKEILTPSWREVDLQSLKGSPDEENEEIEDLSDAAFAALHAKCEEMERARWLWTTSVPPQRRGSRSYRSSDGRTTPQLGSANPSTPQPASPDVSSSHSLSEYSHGQSPRSPISPELHSAPLTPVARDTPRHLASEDTRCSTPELGLDEQSVQPWERRTFPLAHSPQAECEDQLDAQERAARCTRRTSGSKTGRETEAAPTSPPIVPLKSRHLVAAATAQRPTHR

Variants of: B1
Conditions: with wdr5_human WDR5, P61964

effect of a mutation on the interaction | Variant
disrupting interaction | MNRIRIHVLPTNRGRITPVPRSQEPLSCAFTHRPCSHPRLEGQEFCIKHILEDKNAPFKQCSYISTKNGKRCPNAAPKPEKKDGVSFCAEHVRRNALALHAQMKKTNPGPVGETLLCQLSSYAKTELGSQTPESSRSEASRILDEDSWSDGEQEPITVDQTWRGDPDSEADSIDSDQEDPLKHAGVYTAEEVALIMREKLIRLQSLYIDQFKRLQHLLKEKKRRYLHNRKVEHEALGSSLLTGPEGLLAKERENLKRLKCLRRYRQRYGVEALLHRQLKERRMLATDGAAQQAHTTRSSQRCLAFVDDVRCSNQSLPMTRHCLTHICQDTNQVLFKCCQGSEEVPCNKPVPVSLSEDPCCPLHFQLPPQMYKPEQVLSVPDDLEAGPMDLYLSAAELQPTESLPLEFSDDEDDVGDGMQCPPSPLLFDPSLTLEDHLVKEIAEDPVDILGQMQMAGDGCRSQGSRNSEKASAPLSQSGLATANGKPEPTSIS [L411E;V413D]

Variants of: B1
Conditions: with wdr5_human WDR5, P61964
Remark: another data set of the same source

effect of a mutation on the interaction | Variant
disrupting interaction | MNRIRIHVLPTNRGRITPVPRSQEPLSCAFTHRPCSHPRLEGQEFCIKHILEDKNAPFKQCSYISTKNGKRCPNAAPKPEKKDGVSFCAEHVRRNALALHAQMKKTNPGPVGETLLCQLSSYAKTELGSQTPESSRSEASRILDEDSWSDGEQEPITVDQTWRGDPDSEADSIDSDQEDPLKHAGVYTAEEVALIMREKLIRLQSLYIDQFKRLQHLLKEKKRRYLHNRKVEHEALGSSLLTGPEGLLAKERENLKRLKCLRRYRQRYGVEALLHRQLKERRMLATDGAAQQAHTTRSSQRCLAFVDDVRCSNQSLPMTRHCLTHICQDTNQVLFKCCQGSEEVPCNKPVPVSLSEDPCCPLHFQLPPQMYKPEQVLSVPDDLEAGPMDLYLSAAELQPTESLPLEFSDDLDDVGDGMQCPPSPLLFDPSLTLEDHLVKEIAEDPVDILGQMQMAGDGCRSQGSRNSEKASAPLSQSGLATANGKPEPTSIS [V413D]

Variants of: B2
Conditions: with wdr5_human WDR5, P61964

effect of a mutation on the interaction | Variant
disrupting interaction | R592A
